# Target: CD117 (mast/stem cell growth factor receptor, proto-oncogene c-Kit protein) on CD117+ mouse bone marrow cells (mouse) (UniProt P05532)
# Experiment: cell-based or functional assay
# UniProt P05532, sequence (P05532 25-979): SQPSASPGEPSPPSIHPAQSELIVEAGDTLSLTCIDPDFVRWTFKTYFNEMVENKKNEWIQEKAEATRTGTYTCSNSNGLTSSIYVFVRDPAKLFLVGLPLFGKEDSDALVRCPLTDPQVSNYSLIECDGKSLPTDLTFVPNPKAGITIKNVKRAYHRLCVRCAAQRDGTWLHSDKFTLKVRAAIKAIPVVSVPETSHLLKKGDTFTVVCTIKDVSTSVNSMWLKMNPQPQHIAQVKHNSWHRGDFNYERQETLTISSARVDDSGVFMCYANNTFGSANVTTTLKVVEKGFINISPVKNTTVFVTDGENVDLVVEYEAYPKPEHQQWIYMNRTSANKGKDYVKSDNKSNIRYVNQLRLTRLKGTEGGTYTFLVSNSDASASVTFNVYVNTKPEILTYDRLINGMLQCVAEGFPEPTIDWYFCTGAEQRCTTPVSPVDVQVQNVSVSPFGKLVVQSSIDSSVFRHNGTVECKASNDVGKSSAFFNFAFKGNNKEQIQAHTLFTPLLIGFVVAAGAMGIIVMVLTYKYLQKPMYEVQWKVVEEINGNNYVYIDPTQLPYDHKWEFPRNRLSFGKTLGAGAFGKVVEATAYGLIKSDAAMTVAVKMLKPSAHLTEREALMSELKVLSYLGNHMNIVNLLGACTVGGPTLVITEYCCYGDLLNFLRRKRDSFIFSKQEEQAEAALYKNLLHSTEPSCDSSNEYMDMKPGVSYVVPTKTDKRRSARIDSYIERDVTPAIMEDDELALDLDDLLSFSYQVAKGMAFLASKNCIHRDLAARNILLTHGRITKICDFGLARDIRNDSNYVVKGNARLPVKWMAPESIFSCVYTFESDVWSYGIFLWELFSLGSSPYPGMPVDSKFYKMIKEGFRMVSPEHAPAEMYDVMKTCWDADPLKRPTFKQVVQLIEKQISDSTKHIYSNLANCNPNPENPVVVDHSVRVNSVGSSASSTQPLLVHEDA
substance,measurement,value
"Recombinant murine SCF, catalog #250-03, PeproTech (from UniProt P20826 26-189) (ligand)",HDR activity in CD117+ cells (recombination between reporter gene constructs),2 fold
same,"γtcPNA4/donor DNA-mediated gene editing in CD117+ cells (% GFP expressing cells, flow cytometry)",15%

# — US20170283830A1
